We go through one substance from PMC3105061.

The target in this test is fluorescein labeled SecYEG reconstituted in proteoliposomes (E. coli) (UniProt P0AGA2). Briefly: FRET or BRET; DCFBA-FRET on single proteoliposomes; SecYEG-FM (donor, 488 nm excitation) in PLs, proOmpA(C282)-DhfR-Atto647N (acceptor) in complex with SecB, SecA, NADPH and methotrexate, with or without ATP; in hydrogel of gelator 1 and in suspension; stalled translocation intermediate.
Chain of UniProt P0AGA2 (P0AGA2 whole entry, chain 1 of 3): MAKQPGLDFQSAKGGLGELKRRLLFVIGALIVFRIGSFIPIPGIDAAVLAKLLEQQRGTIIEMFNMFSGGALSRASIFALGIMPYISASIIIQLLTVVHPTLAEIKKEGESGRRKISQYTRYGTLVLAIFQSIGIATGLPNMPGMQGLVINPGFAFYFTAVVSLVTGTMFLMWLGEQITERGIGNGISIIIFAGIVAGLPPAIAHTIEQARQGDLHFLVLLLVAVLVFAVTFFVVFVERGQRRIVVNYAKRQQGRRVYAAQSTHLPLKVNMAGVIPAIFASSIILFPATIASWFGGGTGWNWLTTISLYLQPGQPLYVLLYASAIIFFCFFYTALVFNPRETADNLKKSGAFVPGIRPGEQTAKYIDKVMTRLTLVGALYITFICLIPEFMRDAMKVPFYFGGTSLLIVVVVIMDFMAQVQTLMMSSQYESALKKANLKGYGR
Chain of UniProt P0AGA2 (P0AG96 whole entry, chain 2 of 3, further chain): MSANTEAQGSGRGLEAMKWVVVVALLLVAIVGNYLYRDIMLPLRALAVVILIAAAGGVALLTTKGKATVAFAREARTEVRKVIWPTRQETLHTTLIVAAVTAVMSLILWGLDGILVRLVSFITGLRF
Chain of UniProt P0AGA2 (P0AG99 whole entry, chain 3 of 3, further chain): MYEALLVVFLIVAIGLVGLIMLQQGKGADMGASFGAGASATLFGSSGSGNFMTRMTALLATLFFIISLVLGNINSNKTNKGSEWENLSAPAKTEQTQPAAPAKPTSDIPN

Regarding “fusion protein proOmpA(C282)-DhfR-Atto647N”, the average FRET efficiency per liposome in the hydrogel compared to suspension stood at 50%.
